Reference: a protein production outcome set (Wang et al. 2014)

experiment: label from the status in PepcDB records

Sequence	protein production
MNHRSVRGICATLGVLLVIGCSGPDAKKAKFYAKGKELYDKGDYAKAALEFKNAIQIDPKYAEAYHMLGLVEMKKGNIKGAFGNFTKAVELNPQHQEARLQLGRIYLGAGAPDEAMKEAVEVLKINPASEDAQLLKGAVLIARKEKGKARELLEGLVAKGVKKPDAYSLLASIHALDGNAKDAEAILRKGLAINPSSSDLHLTLAGLCVGTGRTDEAISLLQRVVSLEPGRTDHRLKLAALCWDTGKVAEARKALTDLVAIAPEKEENRLQAAGFLAGKGEADEAEKLLKEGIAGKGKNYKLRFALADLYLNTGKGDQAVTLLTETAGLDKASRQESLQAKNALAQIALDRNRVDEAVKLVTEVLKESPKNTDARFLKGNIHMMKGEGAQAVAEYRTVVTDNPQSVPGFIRLAEAHLLNREKNLAFDNLQNALKIDPENRDALVALARYHVMQKDMKNAEAALRKVLAKSPNDLEAKAELGDLFLAAGDLKRAEAEYGELKRKAPGLPVGYVKMGDIYLHRGKSDKALAELEQAVRLNPSSELLAGSLARLYTRLGKFDKAEFLLDQRLKQNPNDAASYTLLGQMNVARNQYGKARQAYEKALSLNGSNWSAANDLAFLLAETGSGADLDRALTLIEKVKQSRPDDPRVLDTVGWIYYKKGNAGKAVEILSQVHRKTGDSPVIDYHLGMASYKAGDKARAKELLTKAMTSKSGFAGREEAVKTLGIIKG	failed
MNHSFRTGITGRRFSAMRVPYGRSRRTHRNGGAGREGTTMTTTTTPTTTTPTSPPTVKAPTVKAPTAKTATAKTADNPVLRVAPASPAAAAAYFGASLAFHADVSDVATALAAGGDPGFVVLDSRSTASWDQGHVPGAVHLPTALIPEQAEQLLDRSVPVVTYCWGPGCNGATRAALALAELGFQVKEMLGGFEYWVREGFEYETWEGRDHRVADPLTAPVDADDCGC	failed
MNHTADNCIFCKIIDGQILCSKVYEDEHVLAFLDISQVTKGHTLVIPKVHKQDIFALTPEIASHIFSVVPKIANAIKAEFNPVGFNLLNNNGEKAGQTVFHFHLHLIPRYGENDGFGAVWKSHQNEYTMENLQNIASTIANSVK	not failed
MNHTLQFPKAPEHLLQALNEVIPKCKLMAQQLPETAISLWLIPPVFPTERLDDDIIRRIWSDTPYWIFCWASGLAMAQWLLAEPHHVKDKVVLDFGAGSGVVAIAAKMAGAKRVICCDIDETSLNACRENALLNNVELEYLNDLYLSESVDILLAADVLYDQSNRFFLDEFLKFAPEVWVADSRVKNFSHPGYIKIDERSATTWPDLDEAKEFRNVSFYKTL	failed
MNIDAVVEFTKKHLKDEKTGHDFYHGQRVANLASKMYLEDHPDAHADSRMVAIIKSGGYLHDTIDEKVCDNPDKVIAEIKELLPEVGFTDLEVWDILFTIQHMSFSANIEHHYHLPLSGQYVQDADRLESLGAMGIARAFTYGGKHGNKIYDPEIKPEKLVSHDQYRNHVETTINHFYEKLFHLADTMNTPAMKKEANRRTEYMHNFVQEFMNEWNVLEHHHHHH	not failed
MNIDLSAIFAQYEALVAETDALFERVRALHPDCVTCGLGCSDCCHAMFDLSLVEAMYLNGKFAASFDFGPERSAVLERASDADRHAYRIKRRMYRESEDGRPAEDILAEAARERVRCPLLGEGDACVLYAHRPITCRLYGIPTAIGGKGHTCGKTAFRAGEKYPTVAVDRIQDRLAALSKEIAVAVGSRFSELHQVYVPVSMALLTRYDDAYLGIGKPKRDD	failed
MNIGLLEALDQLEEEKGISKEEVIPILEKALVSAYRKNFGNSKNVEVVIDRNTGNIKVYQLLEVVEEVEDPATQISLEEAKKIDPLAEVGSIVKKELNVKNFGRIAAQTAKQVLIQRIRELEKEKQFEKYSELKGTVTTAEVIRVMGEWADIRIGKLETRLPKKEWIPGEEIKAGDLVKVYIIDVVKTTKGPKILVSRRVPEFVIGLMKLEIPEVENGIVEIKAIAREPGVRTKVAVASNDPNVDPIGACIGEGGSRIAAILKELKGEKLDVLKWSDDPKQLIANALAPATVIEVEILDKENKAARVLVPPTQLSLAIGKGGQNARLAAKLTGWKIDIKPIMNL	not failed
MNIGNITISVIIPVYNASVTLPHCLESLHKQTYRNLELLFVDDCSTDESLYILTSYAEQFAEIDFTIRILQHERNRGVAAARNTALKCATGDYIYYVDADDSIEPHTLECLVNEINHKGLDIVGHEWYLTFNSNARYMKQPAYTTSVEALRKMMGGVMRWNLWLFLVRRSLYVENDIRFTEGLNMGEDMMVMMKLFICAGKVGIVHRPFYHYRQSNPESLTKIYSQEHIIQVANNVYEVEKYVNASAYADSLIEFIPFLKLNIKLPLLITDDKSHYEQWLECFPEANCYVMNNKLLPLRTRIIQWMAVKRYFILLRLYYRTVFKLVYGIIYKLEHHHHHH	failed
MNIKINEKWREVKENCTVYALKNEEFPDSHVIVLNGFPLVEDKKLKDGDRIVFIKKGIMPNKEELEELMVSRHTPGIHEKLKRIKVLIAGCGGLGSNIAISLGRIGVGSISLVDFDIVEPSNLNRQQYYIEDIGEFKVTALKRNLIRINPFIKIEALNLKLSEDNMGILQGADIIIEAFDNPDYKALLANYVLGNMKDKFLISSSGMAGFYDSNLIKTKQITDKFYICGDLVNEAKEGCGLMAPRVAICANHMANLVIDIAINKIEFQK	failed
MNIKIVFYVLGGLLRLLGLLMIVPLGVAYYYGESLTPFLVSIVITVLTGLILLSYKTDEDWMRKEGFAIVALGWLAVAVFGAIPFMLDGISPLNSLFEAMSAFTTTGSTILTDIESHPKGILFWRSMMQWLGGMGIIVLFIAVLPKFGVAGRQLFRAEAPGPTEDKLKPRIRETAKILWMVYFVISFAEVVALLLAGLSLYDAITHTFTTMACGGFSPYGTSIEAFRSPLVEYIITFFMFVSGANFALHYRAIYVDKDFLLKDDEFRFYTALTLAATGLLTLLLYRDINTGFFDSFRLAIFQVVSIMTTTGFATADFNFWSDSAKMVLLLIMFVGGCAGSTGGGIKVVRILMLLRHGRVELFKSLHPRAIRGVKFNNKNVPDEVINSIFSFVVIYLFIFMSSALILAVLGMDIITSTTASIATLGNIGPGLNVVGPMGTFDPIPPLGKLILIANMWIGRLEVYTVIVLFTPEFWNK	failed
MNIKLYYVHDPMCSWCWGYKPTIEKLKQQLPGVIQFEYVVGGLAPDTNLPMPPEMQQKLEGIWKQIETQLGTKFNYDFWKLCTPVRSTYQSCRAVIAAGFQDSYEQMLEAIQHAYYLRAMPPHEEATHLQLAKEIGLNVQQFKNDMDGTLLEGVFQDQLSLAKSLGVNSYPSLVLQINDAYFPIEVDYLSTEPTLKLIRERIIENMSA	not failed
MNIMLFHSTYGLRPAVRAAADRLRAAGHEVWTPDLLEGRTFETVEEGMAFCDGIGKDELLKRAVLAAAPYSERGLVYAGFSLGASIAQTLALGDEKARGLLLLHGTSDIAESASVDELPVQLHVAEPDAFETDDWLGAWYLQLRRAGADVEVYRYAGAGHLYTDPDLPDYDAEAAEATWKVALGFLDSL	not failed
MNINENASQYIPHEAPMVFVDDLIEIFDQGALASLTIRPELLFCTAQGLPSWTSIELMAQTISAYSGRNGRQRGHTPRIGFLLGTRKLNLPVAFFELGSTLIIRIEQQYLHEGLGQFACEIEYQAHKISALLSVYEPTVDQDNKENT	failed
MNIPTTTTKGEQAKSQLIAAALAQFGEYGLHATTRDIAALAGQNIAAITYYFGSKEDLYLACAQWIADFLGEKFRPHAEKAERLFSQPAPDRDAIRELILLACKNMIMLLTQEDTVNLSKFISREQLSPTSAYQLVHEQVIDPLHTHLTRLVAAYTGCDANDTRMILHTHALLGEVLAFRLGKETILLRTGWPQFDEEKAELIYQTVTCHIDLILHGLTQRSLD	not failed
MNIQAIDTRHGTANQHSFSNGNCLPYTGVPFGMNFYAPQTTDQKGSWWFHPEDRTFQGYRVTHQPSPWMGDFSHLLMTPVSGSLSELSLFHAQSSYRPEESLFSPVEINLTQLRYQITSQLIPSMYGGILTIDYQQKDNHLLLTLPGRYQVKQLDDHQVAVKVINYSGCEDPDFSFYFVLHFEQPLTKWFAPSSGLEHHHHHH	failed
MNIQLSPLEARVIGCLIEKEVTTPDHYPLTLNSLTTACNQKSNREPVLNLSEAEVQDTVEGLIARRLVSDESSFNSRTSKYQHRFCNTEFGDLKLNQQELGLICCLLLRGAQTPGELRTRTNRLCTFTDVKETEAVLERLANRDSGALVVKLPREPGKRESRYHHLFCGEVDMAA	not failed
MNISKEKVVDAISMVGYFVFAYVVMELLSINKYDWMMESGDSICSIPHQPLSNRILQAGVAALLLITPLFIALARNIFIKNRYKIAYYIVGILCIALYGGWLFLGRFALC	failed
MNISSAQFIPGVHTVEEIEAEIHKNLHISKSCSYQKVPNSHKEFTKFCYEVYNEIKISDKEFKEKRAALDTLRLCLKRISPDAELVAFGSLESGLALKNSDMDLCVLMDSRVQSDTIALQFYEELIAEGFEGKFLQRARIPIIKLTSDTKNGFGASFQCDIGFNNRLAIHNTLLLSSYTKLDARLKPMVLLVKHWAKRKQINSPYFGTLSSYGYVLMVLYYLIHVIKPPVFPNLLLSPLKQEKIVDGFDVGFDDKLEDIPPSQNYSSLGSLLHGFFRFYAYKFEPREKVVTFRRPDGYLTKQEKGWTSATEHTGSADQIIKDRYILAIEDPFEISHNVGRTVSSSGLYRIRGEFMAASRLLNSRSYPIPYDSLFEEAPIPPRRQKKTDEQSNKKLLNETDGDNS	not failed
MNIVIVVFSTDEETLRKFKDIIKKNGFKVRTVRSPQELKDSIEELVKKYNATIVVVVVDDKEWAEKAIRFVKSLGAQVLIIIYDQDQNRLEEFSREVRRRGFEVRTVTSPDDFKKSLERLIREVGSLEHHHHHH	not failed
MNKALIVILSTVALDAIGAGLIFPILPDILVEVTGGGDIGFLYGVMLGVFAVMQFVFSPILGALSDRFGRRPVLLLSLAGTLLDYLVMAFSPLGWVLVVGRAMAGITSANMAVASAYITDITPAEQRAQRFGTVGAVMSLGFIIGPVIGGVIGAWWLRAPFLVAALFNGLNLFVALFVLPESRKAGPGKFAFKELNPLAPLVWLWNFKPLLPLVTVSVVFGLVAAIPGTIWVLYGAERFGWDSVHMGLSLSVFGVSGALAQAFLVGPLSRRFGDLGTLMIGVGFDMLAYMLMAFANQSWMGYAVAPLFALGGVAMPALQSLVTSRVSDDQQGQLQGVLASLMSLAGIIGPVLTTAVFFSTKSIWIGTIWLVGAALYLLALPLFATVKTPKAVAA	failed
MNKFFLESERLIIRPLEESDYDSWYTSFMNRGPSLTPFDDGILDMSMCDINWFKNLVNLQRKEWESDIVYIFGVFLKSGEHVGMLNIVTLARADMQWGELGYVFHNQFWSNGYAFESILALLNSTYEKLGFHHIEAQITPGNERSEKLVRRLGLTYETTRKDFSFENGKWTDKLIYSINLHNNNLE	failed
MNKGFILKALFLLCFLFSQTAQGQSFTPGEIWPDNHQVHINAHGGGILYENGTYYWFGEHKTEGEAGNLANVGVHCYSSDDLYHWKDCGIALSVIENDPGHPISKGCILERPKVIYNPLTKKYVMWFHLEPKGAGYSGALSGIALSDRVTGPYTFLKAVRPNAGSWPINVLPIHKTTRRPSAEEERQCTGGSLPAHPDSLNILGRDMEQGQMARDMNLFVDDDGKAYHIYSSEENSTLHIAELDPTYTGYTGKYIRVFINRFMEAPAMFKKDGNYYLIMSGCSGWNPNAARSAIASSIWGEWKELGNPCIGQDADLTFHSQSTYILPVQGKKNQFIYMGDRWTPQNAIDGRYIWLPIHFEGPKPIIEWKDSWTLD	failed
MNKKNVELLVAIGEVYLKAGKLPEAQEYAALAKKVNGKSALASVLEGDIAFEQKNAGLASQKYEEAIYFDPSCTEAYLRYADIYKSANAALAIEKLEQLKAQEPSNTAVDKKLAEIYYLKNDFSKAAEAYSRFAMGPTATEEDLVKYAFALFLNHDFEKSLEVANMGLKKNARHAAFNRLAMYNYTDLKRFDEAIKAADAFFTESDKADYSYLDYMYYGHLLEALKKYDEAVGQYEKAIQLDPTKTDLYKNISSAYEQKNDYKKAISAYQKYYTSLDKEHQTPDLEHHHHHH	failed
